The values that follow come from EP4499697A1 (dated 2025).

Experiment [1] addresses T1, human FRα on cells (human, UniProt P15328 25-234). Nature of the experiment: cell-based or functional assay.
In experiment [2] the target is T1, human FRα on cells. Nature of the experiment: flow cytometry on IGROV-1 cells (endogenous FRα), apparent Kd. Background: In flow cytometry, cells or beads pass a laser one at a time.

T1 sequence (P15328 25-234): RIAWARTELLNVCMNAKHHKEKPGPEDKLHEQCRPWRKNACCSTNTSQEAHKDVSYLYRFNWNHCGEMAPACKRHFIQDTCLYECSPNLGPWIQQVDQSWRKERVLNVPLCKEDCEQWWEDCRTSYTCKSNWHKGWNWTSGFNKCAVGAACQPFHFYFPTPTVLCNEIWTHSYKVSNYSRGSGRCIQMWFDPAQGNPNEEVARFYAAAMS

B1: mirvetuximab (v17716) (antibody, V domains shown)
VH: QVQLVQSGAEVVKPGASVKISCKASGYTFTGYFMNWVKQSPGQSLEWIGRIHPYDGDTFYNQKFQGKATLTVDKSSNTAHMELLSLTSEDFAVYYCTRYDGSRAMDYWGQGTTVTVSS
VL: DIVLTQSPLSLAVSLGQPAIISCKASQSVSFAGTSLMHWYHQKPGQQPRLLIYRASNLEAGVPDRFSGSGSKTDFTLTISPVEAEDAATYYCQQSREYPYTFGGGTKLEIK
Take B1: in the experiment with human FRα on cells [1], the “internalized fluorescence relative to v30384, 25 nM, 5-hour incubation, IGROV-1 cells” value was found to be 0.5 fold. The Kd in the experiment with human FRα on cells [2] turned out to be 690 pM.
